The values below are quoted from earlier work in paper PMC7662862.

What is called Kd is a measure of binding affinity in units of concentration.

Data set [1] has as its target Merlin N-terminal part (FERM) (Homo sapiens) (UniProt P35240). Briefly: SPR. Background: Surface plasmon resonance follows binding to a sensor surface in real time, without labels.
A further data set addresses CRB3 (Homo sapiens) (UniProt Q9BUF7). The data set is described as follows: ITC. Background: ITC needs no label: the signal is the heat of the interaction.
Sequence of UniProt Q9BUF7 (Q9BUF7 27-120): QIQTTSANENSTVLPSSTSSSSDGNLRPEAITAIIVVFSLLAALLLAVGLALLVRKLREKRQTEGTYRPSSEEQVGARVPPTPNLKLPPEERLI

Sequence of UniProt P35240 (P35240 22-311): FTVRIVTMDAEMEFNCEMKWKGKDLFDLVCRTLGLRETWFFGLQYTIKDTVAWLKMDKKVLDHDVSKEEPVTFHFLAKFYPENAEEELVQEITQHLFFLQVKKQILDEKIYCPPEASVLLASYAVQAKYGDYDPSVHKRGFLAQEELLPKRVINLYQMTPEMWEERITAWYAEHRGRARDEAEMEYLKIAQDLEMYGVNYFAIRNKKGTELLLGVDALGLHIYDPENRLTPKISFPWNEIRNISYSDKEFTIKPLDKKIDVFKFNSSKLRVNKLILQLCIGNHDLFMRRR

Turning to MPP1 (from UniProt Q00013), in data set [1], the Kd was 3.7 nM.

On to MPP5 PDZ-SH3-GUK (from UniProt Q8N3R9), for which, in the data set with CRB3 (Homo sapiens), the dissociation constant Kd is 70 nM.
